According to the Human Domainome abundance scans (Beltran et al. 2025):
± gives the uncertainty stated by the source.

B1: 3'-5' exoribonuclease 1, residues 65 to 114; numbered along this chain, Q8IV48 (parent)
chain: VYKEIAITNGCINRMSKEELRAKLSEFKLETRGVKDVLKKRLKNYYKKQK

Variants of: B1
Assay: abundance fitness (aPCA) (normalised: wild type 0, dead -1); higher = more abundant; growth selection in yeast, the domain comes from the species named
Settings: Homo sapiens
VYKMIAITNGCINRMSKEELRAKLSEFKLETRGVKDVLKKRLKNYYKKQK [E4M] showed an abundance fitness of -0.144 ± 0.05.
Work on VYKHIAITNGCINRMSKEELRAKLSEFKLETRGVKDVLKKRLKNYYKKQK [E4H] yielded an abundance fitness of -0.173 ± 0.053.
VYKCIAITNGCINRMSKEELRAKLSEFKLETRGVKDVLKKRLKNYYKKQK [E4C] showed an abundance fitness of -0.161 ± 0.05.
Variant VYKSIAITNGCINRMSKEELRAKLSEFKLETRGVKDVLKKRLKNYYKKQK [E4S] has an abundance fitness of -0.077 ± 0.039.
VYKTIAITNGCINRMSKEELRAKLSEFKLETRGVKDVLKKRLKNYYKKQK [E4T] showed an abundance fitness of -0.06 ± 0.047.
In the case of VYKNIAITNGCINRMSKEELRAKLSEFKLETRGVKDVLKKRLKNYYKKQK [E4N], the abundance fitness is reported as -0.057 ± 0.056.
VYKFIAITNGCINRMSKEELRAKLSEFKLETRGVKDVLKKRLKNYYKKQK [E4F] showed an abundance fitness of -0.214 ± 0.058.
VYKGIAITNGCINRMSKEELRAKLSEFKLETRGVKDVLKKRLKNYYKKQK [E4G] showed an abundance fitness of -0.093 ± 0.036.
For VYKDIAITNGCINRMSKEELRAKLSEFKLETRGVKDVLKKRLKNYYKKQK [E4D], the abundance fitness was 0.003 ± 0.045.
With VYKWIAITNGCINRMSKEELRAKLSEFKLETRGVKDVLKKRLKNYYKKQK [E4W] the abundance fitness was -0.229 ± 0.047.
In the case of VYKRIAITNGCINRMSKEELRAKLSEFKLETRGVKDVLKKRLKNYYKKQK [E4R], the abundance fitness is reported as -0.353 ± 0.036.
VYKIIAITNGCINRMSKEELRAKLSEFKLETRGVKDVLKKRLKNYYKKQK [E4I] showed an abundance fitness of -0.287 ± 0.063.
VYKYIAITNGCINRMSKEELRAKLSEFKLETRGVKDVLKKRLKNYYKKQK [E4Y] gave an abundance fitness of -0.164 ± 0.053.
For VYKLIAITNGCINRMSKEELRAKLSEFKLETRGVKDVLKKRLKNYYKKQK [E4L], the abundance fitness was -0.334 ± 0.041.
VYKPIAITNGCINRMSKEELRAKLSEFKLETRGVKDVLKKRLKNYYKKQK [E4P] showed an abundance fitness of -0.107 ± 0.051.
Work on VYKKIAITNGCINRMSKEELRAKLSEFKLETRGVKDVLKKRLKNYYKKQK [E4K] yielded an abundance fitness of -0.251 ± 0.056.
Work on VYKQIAITNGCINRMSKEELRAKLSEFKLETRGVKDVLKKRLKNYYKKQK [E4Q] yielded an abundance fitness of -0.085 ± 0.061.
For VYKEIAIGNGCINRMSKEELRAKLSEFKLETRGVKDVLKKRLKNYYKKQK [T8G], the abundance fitness was -0.215 ± 0.037.
VYKEIAIKNGCINRMSKEELRAKLSEFKLETRGVKDVLKKRLKNYYKKQK [T8K] showed an abundance fitness of -0.07 ± 0.048.
Variant VYKEIAIYNGCINRMSKEELRAKLSEFKLETRGVKDVLKKRLKNYYKKQK [T8Y] has an abundance fitness of -0.49 ± 0.057.
With VYKEIAIHNGCINRMSKEELRAKLSEFKLETRGVKDVLKKRLKNYYKKQK [T8H] the abundance fitness was -0.268 ± 0.049.
Variant VYKEIAIWNGCINRMSKEELRAKLSEFKLETRGVKDVLKKRLKNYYKKQK [T8W] has an abundance fitness of -0.513 ± 0.049.
In the case of VYKEIAISNGCINRMSKEELRAKLSEFKLETRGVKDVLKKRLKNYYKKQK [T8S], the abundance fitness is reported as -0.019 ± 0.039.
Variant VYKEIAILNGCINRMSKEELRAKLSEFKLETRGVKDVLKKRLKNYYKKQK [T8L] has an abundance fitness of -0.388 ± 0.037.
In the case of VYKEIAIMNGCINRMSKEELRAKLSEFKLETRGVKDVLKKRLKNYYKKQK [T8M], the abundance fitness is reported as -0.161 ± 0.053.
VYKEIAIRNGCINRMSKEELRAKLSEFKLETRGVKDVLKKRLKNYYKKQK [T8R] showed an abundance fitness of -0.174 ± 0.036.
VYKEIAIQNGCINRMSKEELRAKLSEFKLETRGVKDVLKKRLKNYYKKQK [T8Q] gave an abundance fitness of -0.199 ± 0.048.
Variant VYKEIAICNGCINRMSKEELRAKLSEFKLETRGVKDVLKKRLKNYYKKQK [T8C] has an abundance fitness of -0.29 ± 0.054.
VYKEIAIENGCINRMSKEELRAKLSEFKLETRGVKDVLKKRLKNYYKKQK [T8E] showed an abundance fitness of -0.24 ± 0.049.
VYKEIAIDNGCINRMSKEELRAKLSEFKLETRGVKDVLKKRLKNYYKKQK [T8D] showed an abundance fitness of -0.274 ± 0.052.
VYKEIAIPNGCINRMSKEELRAKLSEFKLETRGVKDVLKKRLKNYYKKQK [T8P] showed an abundance fitness of -0.069 ± 0.042.
VYKEIAIFNGCINRMSKEELRAKLSEFKLETRGVKDVLKKRLKNYYKKQK [T8F] showed an abundance fitness of -0.472 ± 0.049.
With VYKEIAKTNGCINRMSKEELRAKLSEFKLETRGVKDVLKKRLKNYYKKQK [I7K] the abundance fitness was -0.131 ± 0.049.
Variant VYKEIATTNGCINRMSKEELRAKLSEFKLETRGVKDVLKKRLKNYYKKQK [I7T] has an abundance fitness of -0.1 ± 0.056.
Variant VYKEIAETNGCINRMSKEELRAKLSEFKLETRGVKDVLKKRLKNYYKKQK [I7E] has an abundance fitness of -0.175 ± 0.051.
For VYKEIARTNGCINRMSKEELRAKLSEFKLETRGVKDVLKKRLKNYYKKQK [I7R], the abundance fitness was -0.178 ± 0.033.
VYKEIADTNGCINRMSKEELRAKLSEFKLETRGVKDVLKKRLKNYYKKQK [I7D] gave an abundance fitness of -0.171 ± 0.051.
VYKEIANTNGCINRMSKEELRAKLSEFKLETRGVKDVLKKRLKNYYKKQK [I7N] showed an abundance fitness of -0.17 ± 0.058.
Work on VYKEIAFTNGCINRMSKEELRAKLSEFKLETRGVKDVLKKRLKNYYKKQK [I7F] yielded an abundance fitness of -0.198 ± 0.047.
For VYKEIAPTNGCINRMSKEELRAKLSEFKLETRGVKDVLKKRLKNYYKKQK [I7P], the abundance fitness was -0.067 ± 0.041.
VYKEIAVTNGCINRMSKEELRAKLSEFKLETRGVKDVLKKRLKNYYKKQK [I7V] gave an abundance fitness of -0.091 ± 0.037.
VYKEIAQTNGCINRMSKEELRAKLSEFKLETRGVKDVLKKRLKNYYKKQK [I7Q] showed an abundance fitness of -0.141 ± 0.05.
Variant VYKEIAWTNGCINRMSKEELRAKLSEFKLETRGVKDVLKKRLKNYYKKQK [I7W] has an abundance fitness of -0.287 ± 0.037.
With VYKEIAMTNGCINRMSKEELRAKLSEFKLETRGVKDVLKKRLKNYYKKQK [I7M] the abundance fitness was -0.016 ± 0.042.
In the case of VYKEIAGTNGCINRMSKEELRAKLSEFKLETRGVKDVLKKRLKNYYKKQK [I7G], the abundance fitness is reported as -0.13 ± 0.034.
Work on VYKEIALTNGCINRMSKEELRAKLSEFKLETRGVKDVLKKRLKNYYKKQK [I7L] yielded an abundance fitness of 0.019 ± 0.035.
Work on VYKEIAYTNGCINRMSKEELRAKLSEFKLETRGVKDVLKKRLKNYYKKQK [I7Y] yielded an abundance fitness of -0.14 ± 0.048.
In the case of VYKEIAHTNGCINRMSKEELRAKLSEFKLETRGVKDVLKKRLKNYYKKQK [I7H], the abundance fitness is reported as -0.166 ± 0.057.
With VYKEIACTNGCINRMSKEELRAKLSEFKLETRGVKDVLKKRLKNYYKKQK [I7C] the abundance fitness was -0.164 ± 0.039.
In the case of VYKEIAATNGCINRMSKEELRAKLSEFKLETRGVKDVLKKRLKNYYKKQK [I7A], the abundance fitness is reported as -0.097 ± 0.04.
Work on VYKEIASTNGCINRMSKEELRAKLSEFKLETRGVKDVLKKRLKNYYKKQK [I7S] yielded an abundance fitness of -0.142 ± 0.037.
VYKEIAITKGCINRMSKEELRAKLSEFKLETRGVKDVLKKRLKNYYKKQK [N9K] gave an abundance fitness of 0.066 ± 0.055.
